Data reported in the supplement of paper PMC9112550, “Optimization of the antimicrobial peptide Bac7 by deep mutational scanning” (BMC Biology, 2022).

What follows are sequences tested on Escherichia coli TOP10 (assay: shrunken log2 fold change of peptide-encoding DNA abundance (4.5 h post-induction vs induction); higher = less antimicrobial activity (less host growth inhibition)). Settings: time post-induction: 4.5 h; library: site-saturation at positions 5, 18, 19, 20.
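Also: peptides expressed intracellularly from a pBAD plasmid library in pooled LB shake-flask culture, induced with 0.3% L-arabinose, DNA abundance read by NGS, three biological replicates, DESeq2 with apeglm shrinkage.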

First: RRIRFRPPRLPRPRPRPWSDPRP
Second: RRIRNRPPRLPRPRPRPEMNPRP
The “shrunken log2 fold change” value of the first is lower: -0.159 for the first, 0.0511 for the second.

Compared with RRIRERPPRLPRPRPRPKSKPRP, RRIRVRPPRLPRPRPRPSNSPRP is lower in “shrunken log2 fold change” value: -0.19 for the first, -0.826 for the second.

First: RRIRSRPPRLPRPRPRPQEQPRP
Second: RRIRMRPPRLPRPRPRPACGPRP
The “shrunken log2 fold change” value of the first is lower: 0.0984 for the first, 0.811 for the second.

First: RRIRCRPPRLPRPRPRPHAMPRP
Second: RRIRRRPPRLPRPRPRPRANPRP
The “shrunken log2 fold change” value of the first is lower: -0.145 for the first, 0.954 for the second.

Compared with RRIRMRPPRLPRPRPRPYFSPRP, RRIRGRPPRLPRPRPRPPYPPRP is higher in “shrunken log2 fold change” value: -0.177 for the first, 0.291 for the second.

First: RRIRCRPPRLPRPRPRPPVEPRP
Second: RRIRTRPPRLPRPRPRPTTEPRP
The “shrunken log2 fold change” value of the first is higher: 0.35 for the first, -0.16 for the second.

RRIRHRPPRLPRPRPRPGTDPRP and RRIRPRPPRLPRPRPRPLNRPRP are within 0.2 log units of each other in “shrunken log2 fold change” value: -0.0998 for the first, -0.0518 for the second.

First: RRIRSRPPRLPRPRPRPDAGPRP
Second: RRIRTRPPRLPRPRPRPMDQPRP
The “shrunken log2 fold change” value of the first is higher: 0.569 for the first, 0.0595 for the second.

Compared with RRIRLRPPRLPRPRPRPRIFPRP, RRIRKRPPRLPRPRPRPITNPRP is higher in “shrunken log2 fold change” value: -0.263 for the first, 0.133 for the second.

RRIRARPPRLPRPRPRPDQLPRP and RRIRVRPPRLPRPRPRPALSPRP are within 0.2 log units of each other in “shrunken log2 fold change” value: 0.421 for the first, 0.414 for the second.

First: RRIRWRPPRLPRPRPRPCSIPRP
Second: RRIRFRPPRLPRPRPRPHHLPRP
The “shrunken log2 fold change” value of the first is higher: -0.134 for the first, -1.06 for the second.

First: RRIRQRPPRLPRPRPRPECHPRP
Second: RRIRFRPPRLPRPRPRPGQLPRP
The “shrunken log2 fold change” value of the first is higher: 0.268 for the first, -0.0429 for the second.

Going from RRIRKRPPRLPRPRPRPHGDPRP to RRIRSRPPRLPRPRPRPTPKPRP, the “shrunken log2 fold change” value rises from 0.0106 to 0.697.

Compared with RRIRPRPPRLPRPRPRPPEYPRP, RRIRARPPRLPRPRPRPPNGPRP is higher in “shrunken log2 fold change” value: -0.558 for the first, -0.00234 for the second.

Compared with RRIRQRPPRLPRPRPRPIGLPRP, RRIRRRPPRLPRPRPRPPKVPRP is higher in “shrunken log2 fold change” value: -0.00141 for the first, 0.693 for the second.

Going from RRIRCRPPRLPRPRPRPWYMPRP to RRIRQRPPRLPRPRPRPRLGPRP, the “shrunken log2 fold change” value rises from -0.838 to 0.272.

RRIRRRPPRLPRPRPRPHLVPRP and RRIRQRPPRLPRPRPRPANCPRP are within 0.2 log units of each other in “shrunken log2 fold change” value: 0.127 for the first, 0.0322 for the second.

Going from RRIRGRPPRLPRPRPRPGGRPRP to RRIRQRPPRLPRPRPRPHQWPRP, the “shrunken log2 fold change” value falls from 1.09 to 0.323.

First: RRIRGRPPRLPRPRPRPQQTPRP
Second: RRIRRRPPRLPRPRPRPCPDPRP
The “shrunken log2 fold change” value of the first is higher: 1.6 for the first, -0.0762 for the second.

Compared with RRIRDRPPRLPRPRPRPMAEPRP, RRIRIRPPRLPRPRPRPSERPRP is lower in “shrunken log2 fold change” value: 0.902 for the first, -0.073 for the second.

Going from RRIRRRPPRLPRPRPRPELPPRP to RRIRGRPPRLPRPRPRPPQYPRP, the “shrunken log2 fold change” value falls from 0.695 to 0.38.

Going from RRIRLRPPRLPRPRPRPEYAPRP to RRIRWRPPRLPRPRPRPAKMPRP, the “shrunken log2 fold change” value rises from -0.000852 to 0.519.

Compared with RRIRGRPPRLPRPRPRPCTQPRP, RRIRNRPPRLPRPRPRPNNWPRP is lower in “shrunken log2 fold change” value: 0.196 for the first, -0.0773 for the second.

RRIRLRPPRLPRPRPRPMQQPRP and RRIRNRPPRLPRPRPRPDPIPRP are within 0.2 log units of each other in “shrunken log2 fold change” value: 0.0192 for the first, -0.143 for the second.

RRIRRRPPRLPRPRPRPWMGPRP and RRIRGRPPRLPRPRPRPHKEPRP are within 0.2 log units of each other in “shrunken log2 fold change” value: -0.127 for the first, -0.0695 for the second.

First: RRIRFRPPRLPRPRPRPQYLPRP
Second: RRIRIRPPRLPRPRPRPWHDPRP
The “shrunken log2 fold change” value of the first is higher: -0.329 for the first, -0.676 for the second.

First: RRIRMRPPRLPRPRPRPDCAPRP
Second: RRIRARPPRLPRPRPRPHGNPRP
The “shrunken log2 fold change” value of the first is higher: 1.95 for the first, -0.0231 for the second.

Going from RRIRDRPPRLPRPRPRPSMNPRP to RRIRERPPRLPRPRPRPAISPRP, the “shrunken log2 fold change” value falls from -0.152 to -0.691.

RRIRNRPPRLPRPRPRPTKRPRP and RRIRHRPPRLPRPRPRPLWSPRP are within 0.2 log units of each other in “shrunken log2 fold change” value: -0.301 for the first, -0.31 for the second.

First: RRIRFRPPRLPRPRPRPSTCPRP
Second: RRIRVRPPRLPRPRPRPFALPRP
The “shrunken log2 fold change” value of the first is lower: -0.262 for the first, 0.0564 for the second.

First: RRIRIRPPRLPRPRPRPKVWPRP
Second: RRIRMRPPRLPRPRPRPGGRPRP
The “shrunken log2 fold change” value of the first is lower: -0.0123 for the first, 1.04 for the second.

Compared with RRIRWRPPRLPRPRPRPRHPPRP, RRIRNRPPRLPRPRPRPMGKPRP is lower in “shrunken log2 fold change” value: 0.382 for the first, -0.491 for the second.

Compared with RRIRVRPPRLPRPRPRPNMCPRP, RRIRLRPPRLPRPRPRPAGYPRP is higher in “shrunken log2 fold change” value: -0.576 for the first, -0.0817 for the second.

Compared with RRIRERPPRLPRPRPRPNRMPRP, RRIRGRPPRLPRPRPRPCVSPRP is higher in “shrunken log2 fold change” value: -1.36 for the first, 0.265 for the second.

First: RRIRARPPRLPRPRPRPAVEPRP
Second: RRIRPRPPRLPRPRPRPCDSPRP
The “shrunken log2 fold change” value of the first is higher: 0.666 for the first, 0.301 for the second.

Going from RRIRPRPPRLPRPRPRPDFKPRP to RRIRLRPPRLPRPRPRPANPPRP, the “shrunken log2 fold change” value rises from -0.464 to -0.0638.

First: RRIRTRPPRLPRPRPRPIQHPRP
Second: RRIRCRPPRLPRPRPRPMDEPRP
The “shrunken log2 fold change” value of the first is lower: -0.403 for the first, 0.348 for the second.

RRIRQRPPRLPRPRPRPNVYPRP and RRIRPRPPRLPRPRPRPNGPPRP are within 0.2 log units of each other in “shrunken log2 fold change” value: -0.222 for the first, -0.027 for the second.

RRIRERPPRLPRPRPRPVLVPRP and RRIRQRPPRLPRPRPRPQHVPRP are within 0.2 log units of each other in “shrunken log2 fold change” value: -0.0151 for the first, 0.00911 for the second.

First: RRIRGRPPRLPRPRPRPNVCPRP
Second: RRIRWRPPRLPRPRPRPTYNPRP
The “shrunken log2 fold change” value of the first is lower: -0.237 for the first, 0.4 for the second.

First: RRIRGRPPRLPRPRPRPKNKPRP
Second: RRIRSRPPRLPRPRPRPNTFPRP
The “shrunken log2 fold change” value of the first is higher: 0.375 for the first, -0.0296 for the second.

First: RRIRPRPPRLPRPRPRPYPLPRP
Second: RRIRMRPPRLPRPRPRPFGDPRP
The “shrunken log2 fold change” value of the first is lower: -0.861 for the first, 0.0178 for the second.

Compared with RRIRVRPPRLPRPRPRPCYHPRP, RRIRLRPPRLPRPRPRPDAQPRP is higher in “shrunken log2 fold change” value: -0.00421 for the first, 0.34 for the second.

First: RRIRMRPPRLPRPRPRPSVPPRP
Second: RRIRTRPPRLPRPRPRPPSQPRP
The “shrunken log2 fold change” value of the first is lower: -0.0568 for the first, 0.269 for the second.

Going from RRIRLRPPRLPRPRPRPSVLPRP to RRIRTRPPRLPRPRPRPNAAPRP, the “shrunken log2 fold change” value rises from -0.779 to 0.371.

Going from RRIRMRPPRLPRPRPRPRPRPRP to RRIRARPPRLPRPRPRPFKYPRP, the “shrunken log2 fold change” value falls from 1.68 to -0.0956.

First: RRIRMRPPRLPRPRPRPSLHPRP
Second: RRIRWRPPRLPRPRPRPSGFPRP
The “shrunken log2 fold change” value of the first is lower: -0.222 for the first, 0.121 for the second.

First: RRIRLRPPRLPRPRPRPTRYPRP
Second: RRIRSRPPRLPRPRPRPGFIPRP
The “shrunken log2 fold change” value of the first is higher: 0.0777 for the first, -0.205 for the second.

RRIRSRPPRLPRPRPRPKGMPRP and RRIRFRPPRLPRPRPRPGVKPRP are within 0.2 log units of each other in “shrunken log2 fold change” value: -0.0819 for the first, -0.0657 for the second.

Going from RRIRKRPPRLPRPRPRPDQLPRP to RRIRARPPRLPRPRPRPDAMPRP, the “shrunken log2 fold change” value rises from 0.107 to 1.02.

Going from RRIRRRPPRLPRPRPRPSTHPRP to RRIRIRPPRLPRPRPRPGNKPRP, the “shrunken log2 fold change” value falls from 0.0934 to -0.569.

RRIRHRPPRLPRPRPRPIQHPRP and RRIRARPPRLPRPRPRPCYFPRP are within 0.2 log units of each other in “shrunken log2 fold change” value: -0.237 for the first, -0.324 for the second.

RRIRLRPPRLPRPRPRPLPMPRP and RRIRGRPPRLPRPRPRPFCTPRP are within 0.2 log units of each other in “shrunken log2 fold change” value: 0.0573 for the first, 0.157 for the second.

Going from RRIRQRPPRLPRPRPRPTCKPRP to RRIRVRPPRLPRPRPRPHPLPRP, the “shrunken log2 fold change” value falls from 0.0706 to -0.435.

RRIRLRPPRLPRPRPRPMFDPRP and RRIRVRPPRLPRPRPRPHQLPRP are within 0.2 log units of each other in “shrunken log2 fold change” value: -0.249 for the first, -0.243 for the second.

Compared with RRIRARPPRLPRPRPRPNEWPRP, RRIRTRPPRLPRPRPRPPYHPRP is lower in “shrunken log2 fold change” value: 0.0144 for the first, -0.541 for the second.

Going from RRIRARPPRLPRPRPRPLTPPRP to RRIRARPPRLPRPRPRPFLMPRP, the “shrunken log2 fold change” value rises from 0.548 to 0.791.

Compared with RRIRHRPPRLPRPRPRPAGHPRP, RRIRGRPPRLPRPRPRPAQMPRP is higher in “shrunken log2 fold change” value: -0.0991 for the first, 0.305 for the second.

RRIRPRPPRLPRPRPRPCCEPRP and RRIRSRPPRLPRPRPRPEVLPRP are within 0.2 log units of each other in “shrunken log2 fold change” value: -0.116 for the first, -0.0111 for the second.

First: RRIRNRPPRLPRPRPRPRRLPRP
Second: RRIRHRPPRLPRPRPRPEGQPRP
The “shrunken log2 fold change” value of the first is higher: 2.6 for the first, -0.0936 for the second.

RRIRFRPPRLPRPRPRPFDKPRP and RRIRFRPPRLPRPRPRPIARPRP are within 0.2 log units of each other in “shrunken log2 fold change” value: 0.00679 for the first, 0.00909 for the second.

Going from RRIRRRPPRLPRPRPRPTSCPRP to RRIRYRPPRLPRPRPRPRNHPRP, the “shrunken log2 fold change” value falls from -0.108 to -0.336.

RRIRPRPPRLPRPRPRPQREPRP was tested, and the “shrunken log2 fold change” value was -0.063.
